± gives the uncertainty stated by the source.
Assay: self-splicing fitness, log relative to wild type (ln ratio); higher = more splicing; Tetrahymena group I intron in knt gene, E. coli kanamycin selection, DiMSum; sequences stand for … in CUCUCU…GGAGGGAAAAGUUAUCAGGCAUGCACCUGGUAGCUAGUCUUUAAACCAAUAGAUUGCAUCGGUUUAAAAGGCAAGACCGUCAAAUUGCGGGAAAGGGGUCAACAGCCGUUCAGUACCAAGUCUCAGGGGAAACUUUGAGAUGGCCUUGCAAAGGGUAUGGUAAUAAGCUGACGGACAUGGUCCUAACCACGCAGCCAAGUCCUAAGUCAACAGAUCUUCUGUUGAUAUGGAUGCAGUUCACAGACUAAAUGUCGGUCGGGGAAGAUGUAUUCUUCUCAUAAGAUAUAGUCGGACCUCUCCUUAAUGGGAGCUAGCGGAUGAAGUGAUGCAACACUGGAGCCGCUGGGAACUAAUUUGUAUGCGAAAGUAUAUUGAUUAGUUUUGGAGUACUCGUGGUCG
Outline: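 Pooled colonies went to amplicon sequencing on an Illumina HiSeq 2500 after six replicate transformations. The plates were LB agar with 100 μg/mL carbenicillin, 50 μM IPTG and 0.2% rhamnose, with or without 25 μg/mL kanamycin, incubated overnight at 37°C or 30°C. The E. coli BL21(DE3) library had all eight P1ex-region intron nucleotides randomised, the intron placed in the knt kanamycin-resistance gene on pET-22b(+). DiMSum fitness is the error-weighted combination of replicate fold changes, kanamycin against none, normalised to wild type.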

| Sequence | self-splicing fitness (ln) (30 °C) | self-splicing fitness (ln) (37 °C) |
| --- | --- | --- |
| GAAAAGCAAUAUUACGCGCU | -0.913 ± 0.11 | -0.301 ± 0.11 |
| GAAAAGCAAUAUUACGGAUC | -1.04 ± 0.072 | -0.773 ± 0.087 |
| GAAAAGCAAUAUUACGGCAC | -0.696 ± 0.058 | -0.217 ± 0.093 |
| GAAAAGCAAUAUUACGGGAG | -2.95 ± 0.097 | -1.95 ± 0.086 |
| GAAAAGCAAUAUUACGGGGA | -1.38 ± 0.16 | -2.44 ± 0.23 |
| GAAAAGCAAUAUUACGGGUA | -1.29 ± 0.1 | -0.306 ± 0.095 |
| GAAAAGCAAUAUUACGGUCA | -0.479 ± 0.067 | 0.0562 ± 0.073 |
| GAAAAGCAAUAUUACGGUCG | -0.446 ± 0.065 | -0.0366 ± 0.1 |
| GAAAAGCAAUAUUACGUACC | -0.525 ± 0.092 | -0.528 ± 0.14 |
| GAAAAGCAAUAUUACGUCAA | -2.62 ± 0.19 | -1.11 ± 0.14 |
| GAAAAGCAAUAUUACGUCAG | -3.91 ± 0.33 | -1.39 ± 0.19 |
| GAAAAGCAAUAUUACGUCCG | -1.72 ± 0.12 | -0.481 ± 0.14 |
| GAAAAGCAAUAUUACGUUAA | -2.85 ± 0.15 | -1.78 ± 0.13 |
| GAAAAGCAAUAUUACGUUCG | -1.01 ± 0.064 | -0.233 ± 0.08 |
| GAACAGCAAUAUUACGAAGA | -1.13 ± 0.18 | -0.694 ± 0.16 |
| GAACAGCAAUAUUACGAAGC | -1.37 ± 0.1 | -1.14 ± 0.13 |
| GAACAGCAAUAUUACGAGAG | -3.49 ± 0.17 | -1.83 ± 0.1 |
| GAACAGCAAUAUUACGAGGA | -2.14 ± 0.11 | -1.53 ± 0.14 |
| GAACAGCAAUAUUACGAGUG | -1.78 ± 0.081 | -1.31 ± 0.1 |
| GAACAGCAAUAUUACGAUCC | -2.18 ± 0.17 | -0.784 ± 0.24 |
| GAACAGCAAUAUUACGCCAU | -3.82 ± 0.2 | -2.14 ± 0.18 |
| GAACAGCAAUAUUACGCGUC | -2.99 ± 0.12 | -3.19 ± 0.16 |
| GAACAGCAAUAUUACGGCAA | -0.669 ± 0.094 | -0.372 ± 0.091 |
| GAACAGCAAUAUUACGGGCU | -3.02 ± 0.15 | -0.92 ± 0.11 |

| Sequence | self-splicing fitness (ln) (30 °C) | self-splicing fitness (ln) (37 °C) |
| --- | --- | --- |
| GAACAGCAAUAUUACGGGGC | -3.05 ± 0.15 | -3.3 ± 0.21 |
| GAACAGCAAUAUUACGGGGU | -2.39 ± 0.081 | -2.57 ± 0.15 |
| GAACAGCAAUAUUACGGUGA | -1.08 ± 0.071 | 0.0381 ± 0.08 |
| GAACAGCAAUAUUACGUCCC | -1.98 ± 0.16 | -1.25 ± 0.19 |
| GAACAGCAAUAUUACGUCCU | -1.24 ± 0.09 | -0.941 ± 0.11 |
| GAACAGCAAUAUUACGUUAU | -2.01 ± 0.066 | -1.13 ± 0.077 |
| GAACAGCAAUAUUACGUUGU | -3.8 ± 0.21 | -2.24 ± 0.12 |
| GAAGAGCAAUAUUACGAAAC | -2.57 ± 0.27 | -1.38 ± 0.39 |
| GAAGAGCAAUAUUACGAGCU | -4.07 ± 0.21 | -1.61 ± 0.14 |
| GAAGAGCAAUAUUACGAGGG | -3.54 ± 0.2 | -3.02 ± 0.28 |
| GAAGAGCAAUAUUACGAGGU | -4.02 ± 0.39 | -3.52 ± 0.33 |
| GAAGAGCAAUAUUACGAGUC | -4.22 ± 0.46 | -2.8 ± 0.47 |
| GAAGAGCAAUAUUACGCUGG | -1.92 ± 0.24 |  |
| GAAGAGCAAUAUUACGCUUU | -4.12 ± 0.3 | -1.91 ± 0.28 |
| GAAGAGCAAUAUUACGGAGG | -2.48 ± 0.2 | -2.01 ± 0.31 |
| GAAGAGCAAUAUUACGGCCU | -1.15 ± 0.14 | -0.824 ± 0.19 |
| GAAGAGCAAUAUUACGGCUC | -1.85 ± 0.24 | -2.06 ± 0.3 |
| GAAGAGCAAUAUUACGGUUG | -3.86 ± 0.35 | -2.18 ± 0.38 |
| GAAGAGCAAUAUUACGUAGC | -2.27 ± 0.21 | -2.31 ± 0.21 |
| GAAGAGCAAUAUUACGUAUC | -3.42 ± 0.21 | -3.41 ± 0.22 |
| GAAGAGCAAUAUUACGUCAA | -3.04 ± 0.27 | -2.16 ± 0.22 |
| GAAGAGCAAUAUUACGUCAC |  | -2.13 ± 0.23 |
| GAAGAGCAAUAUUACGUCGA | -1.47 ± 0.21 | -1.76 ± 0.31 |
| GAAGAGCAAUAUUACGUCGG | -3.36 ± 0.3 | -2.37 ± 0.3 |

| Sequence | self-splicing fitness (ln) (30 °C) | self-splicing fitness (ln) (37 °C) |
| --- | --- | --- |
| GAAGAGCAAUAUUACGUGCC | -3.3 ± 0.19 | -1.81 ± 0.23 |
| GAAGAGCAAUAUUACGUGGC | -2.97 ± 0.24 | -3.01 ± 0.33 |
| GAAGAGCAAUAUUACGUGGG | -3.22 ± 0.16 | -3.05 ± 0.2 |
| GAAGAGCAAUAUUACGUUCC | -4.33 ± 0.28 | -2.04 ± 0.31 |
| GAAGAGCAAUAUUACGUUGA | -3.21 ± 0.19 | -2.63 ± 0.2 |
| GAAGAGCAAUAUUACGUUGU | -3.56 ± 0.28 | -2.83 ± 0.24 |
| GAAGAGCAAUAUUACGUUUA | -1.61 ± 0.15 | -2.56 ± 0.2 |
| GAAUAGCAAUAUUACGACCU | -0.378 ± 0.11 | 0.363 ± 0.13 |
| GAAUAGCAAUAUUACGACGG | -3.32 ± 0.36 | -1.1 ± 0.19 |
| GAAUAGCAAUAUUACGAGGA | -2.85 ± 0.33 | -1.5 ± 0.18 |
| GAAUAGCAAUAUUACGAGGU | -4 ± 0.36 | -2.61 ± 0.24 |
| GAAUAGCAAUAUUACGAGUA | -2.44 ± 0.17 | -1.98 ± 0.17 |
| GAAUAGCAAUAUUACGAUAA | -1.51 ± 0.1 | -0.77 ± 0.13 |
| GAAUAGCAAUAUUACGAUCG | 1.29 ± 0.19 | -0.178 ± 0.27 |
| GAAUAGCAAUAUUACGCAGC | -2.72 ± 0.2 | -1.93 ± 0.2 |
| GAAUAGCAAUAUUACGCCCA | -0.91 ± 0.17 | -0.732 ± 0.24 |
| GAAUAGCAAUAUUACGCGGU | -2.24 ± 0.15 | -2.75 ± 0.27 |
| GAAUAGCAAUAUUACGCUCC |  | -1.37 ± 0.33 |
| GAAUAGCAAUAUUACGCUCG | 0.178 ± 0.15 | -0.999 ± 0.16 |
| GAAUAGCAAUAUUACGCUGC | -3.36 ± 0.45 | -3.32 ± 0.32 |
| GAAUAGCAAUAUUACGGAAA | -1.98 ± 0.16 | -1.31 ± 0.14 |
| GAAUAGCAAUAUUACGGAAG | -4.14 ± 0.39 | -2.1 ± 0.25 |
| GAAUAGCAAUAUUACGGACA | -0.557 ± 0.12 | -0.0249 ± 0.16 |
| GAAUAGCAAUAUUACGGCAG | -3.67 ± 0.39 | -1.93 ± 0.25 |

| Sequence | self-splicing fitness (ln) (30 °C) | self-splicing fitness (ln) (37 °C) |
| --- | --- | --- |
| GAAUAGCAAUAUUACGGCGU | -0.554 ± 0.15 | 0.178 ± 0.16 |
| GAAUAGCAAUAUUACGGCUG | -0.443 ± 0.083 | -0.941 ± 0.1 |
| GAAUAGCAAUAUUACGGGUA | -2.2 ± 0.19 | -1.2 ± 0.14 |
| GAAUAGCAAUAUUACGGUAA | -2.25 ± 0.16 | -0.943 ± 0.13 |
| GAAUAGCAAUAUUACGGUAC | -1.1 ± 0.13 | -0.802 ± 0.2 |
| GAAUAGCAAUAUUACGGUAG | -2.88 ± 0.12 | -2.22 ± 0.16 |
| GAAUAGCAAUAUUACGGUCG | -0.153 ± 0.098 | -0.479 ± 0.12 |
| GAAUAGCAAUAUUACGUAAU | -2.99 ± 0.13 | -0.789 ± 0.11 |
| GAAUAGCAAUAUUACGUACC | -0.757 ± 0.19 | -0.37 ± 0.3 |
| GAAUAGCAAUAUUACGUCCA | -1.28 ± 0.1 | -0.00949 ± 0.13 |
| GAAUAGCAAUAUUACGUCCU | -1.05 ± 0.11 | 0.425 ± 0.15 |
| GAAUAGCAAUAUUACGUCGC | -0.78 ± 0.12 | -0.38 ± 0.17 |
| GAAUAGCAAUAUUACGUCGG | -3.21 ± 0.12 | -3.19 ± 0.2 |
| GAAUAGCAAUAUUACGUUCC | -3.17 ± 0.32 |  |
| GACAAGCAAUAUUACGAAGA | -2.94 ± 0.17 | -1.19 ± 0.13 |
| GACAAGCAAUAUUACGACAU | -0.624 ± 0.011 | -0.191 ± 0.032 |
| GACAAGCAAUAUUACGAGUC | -1.85 ± 0.15 | -2.72 ± 0.28 |
| GACAAGCAAUAUUACGAUUU | -0.222 ± 0.063 | 0.406 ± 0.081 |
| GACAAGCAAUAUUACGCAAC | -2.72 ± 0.14 | -2.15 ± 0.24 |
| GACAAGCAAUAUUACGCACU | 0.582 ± 0.11 | -0.112 ± 0.12 |
| GACAAGCAAUAUUACGCGCU | -1.29 ± 0.058 | -0.594 ± 0.073 |
| GACAAGCAAUAUUACGGAAG | -2.75 ± 0.21 | -3.29 ± 0.37 |
| GACAAGCAAUAUUACGGCCG | -0.239 ± 0.14 | -0.53 ± 0.22 |
| GACAAGCAAUAUUACGGGAA | -2.12 ± 0.097 | -1.36 ± 0.12 |
